Experimental data reported in patent US20220017615A1 (SHANGHAI PHARMAEXPLORER, published 2022).
Residue numbers refer to the chain shown, from its start.

B1: 25E3B5 (antibody, V domains shown)
VH: QVQLQQPGTALVRPGSSVKLSCKASGYTFTSYWMHWVRQRPIKGLEWIGNIDPSDSETHYNQRFKDKVTLTVDKSSNTAYMQLSSLTSEDSAVYYCARWKYHGIGAMDYWGQGTSVTVSS
VL: DVQITQSPSYLAASPGETVTISCRTNRNISKFLAWYQEKPGKTNKLLIYSGSTLHSGIPSRFSGSGSGTDFTLTISRLEPEDFAMYYCQQHNEYPWSFGGGTKLEIK
notes: Murine hybridoma antibody purified on protein G
B2: 20H4G5 (antibody, V domains shown)
VH: QVQLQQPGAELVRPGSSVRLSCVTSGYTFTSHWMHWVKQGPIKGLEWIGNIDPSDSETHYNQKFKDKATLTVDKSSSTAYMQLSRLTSDDSAVYYCARWRHLGIGAMDYWGQGTSVIVSS
VL: B1 VL with V19I, S22N, T25A, N26S, R27K, E38A, T43S, K45N, H55Q, S97T
notes: as for B1

Key:
[1] = biological target: T1, His-tagged CD47 recombinant protein, CD47-His (human, UniProt Q08722 19-141, limits assumed); assay: ELISA on coated CD47-His; Ab 0.021 nM
T1 construct: it is not restated for CD47-His; also called human CD47-His protein; antigen CD47-His; not shown: His tag

[2] = biological target: T2, cynomolgus CD47, on CHOK1-cCD47 stable cell line (cynomolgus); assay: FACS CHOK1-cCD47; Ab 0 nM (background)
T2 construct: whole, on cells; check before use; also called CHOK1/cynoCD47; monkey-derived CD47
Description: (§1) The CHOK1-hCD47 stable cell lines and CHOK1-cCD47 stable cell lines were expanded to 90% confluence in a T-75 cell culture flask, the medium was exhausted, washed twice with HBSS buffer (Hanks balanced salt solution) (purchased from Invitrogen), and then treated and collected with enzyme-free cell dissociation solution (Versene solution: purchased from Life technology). The cells were washed twice with HBSS buffer. After counted, the cells were diluted with HBSS to 2×10⁶ cells per ml, added with 1% goat serum blocking solution, wherein the percentage was the mass percantage, incubated on ice for 30 minutes, and then washed twice with HBSS by centrifugation. […] The plate was washed 3 times with FACS buffer by centrifugation, added with 100 μl fixative solution [4% (v/v) Paraformaldehyde] per well to suspend the cells. 10 minutes later, it was washed twice with FACS buffer by centrifugation. The cells were suspended with 100 microliters of FACS buffer, FACS (FACS Calibur, purchased from BD) was used for detection and the results were analyzed.

[3] = biological target: T1, His-tagged CD47 recombinant protein, …; assay: ELISA on coated CD47-His; Ab 0 nM (background)
Description: (§2) The plate was sealed with plastic film and incubated at 4° C. overnight. The plate was washed twice with plate washing solution [PBS+0.01% (v/v) Tween20] the next day, and blocking solution [PBS+0.01% (v/v) Tween20 +1% (w/w) BSA] was added to block it at room temperature for 2 hours. […] After incubation at 37° C. for 2 hours, the plates were washed three times with plate washing solution [PBS+0.01% (v/v) Tween 20]. HRP (horseradish peroxidase) labeled secondary antibody (purchased from Sigma) was added, incubated at 37° C. for 2 hours, and then washed three times with plate washing solution [PBS+0.01% (v/v) Tween 20]. 1000 of TMB substrate was added to each well. After incubated at room temperature for 30 minutes, the plate was added with 100 μl of stop solution (1.0N HCl) to each well.

[4] = biological target: T3, biotin-labeled CD47 extracellular domain protein (CD47-ECD) (UniProt Q08722 19-139, limits assumed, biotin-labeled (sites not given)); assay: blocking ELISA, biotin-CD47-ECD on coated SIRPα-hFc; Ab 0.32 nM
T3 construct: extracellular domain; also called CD47 protein

[5] = biological target: T2, cynomolgus CD47, on CHOK1-cCD47 stable …; assay: FACS CHOK1-cCD47; Ab 200 nM
Description: as §1

[6] = biological target: T2, cynomolgus CD47, on CHOK1-cCD47 stable …; assay: FACS CHOK1-cCD47; Ab 8 nM
Description: as §1

[7] = biological target: T2, cynomolgus CD47, on CHOK1-cCD47 stable …; assay: FACS CHOK1-cCD47; Ab 0.064 nM
Description: as §1

[8] = biological target: T4, human CD47, full length, on transfected cells (human, UniProt Q08722 19-323); assay: FACS CHOK1-hCD47; Ab 0.32 nM
T4 construct: whole, on cells; also called CHOK1-hCD47
Description: as §1

[9] = biological target: T2, cynomolgus CD47, on CHOK1-cCD47 stable …; assay: FACS CHOK1-cCD47; Ab 1.6 nM
[10] = biological target: T1, His-tagged CD47 recombinant protein, …; assay: ELISA on coated CD47-His; Ab 0.533 nM
Description: as §2

[11] = biological target: T2, cynomolgus CD47, on CHOK1-cCD47 stable …; assay: FACS CHOK1-cCD47; Ab 0.32 nM
Description: as §1

[12] = biological target: T2, cynomolgus CD47, on CHOK1-cCD47 stable …; assay: FACS CHOK1-cCD47; Ab 40 nM
Description: as §1

[13] = biological target: T3, biotin-labeled CD47 extracellular …; assay: blocking ELISA, biotin-CD47-ECD on coated SIRPα-hFc; Ab 200 nM
Description: (§3) The plate was sealed with plastic film and incubated at 4° C. overnight. The plate was washed twice with plate washing solution [PBS+0.01% (v/v) Tween20] on the next day, and blocking solution [PBS+0.01% (v/v) Tween20 +1% (w/w) BSA] was added to block it at room temperature for 2 hours. […] After incubation at 37° C. for 2 hours, the plate was washed three times with the plate washing solution [PBS+0.01% (v/v) Tween 20]. HRP (horseradish peroxidase) labeled avidin diluent (purchased from Sigma) was added as 100 microliters per well, and after the plate was incubated for 2 hours at 37° C., it was washed 3 times with washing solution [PBS+0.01% (v/v) Tween 20]. 100 μl of TMB substrate was added to each well. After incubated at room temperature for 30 minutes, the plate was added with 100 μl of stop solution (1.0N HCl) to each well.

[14] = biological target: T4, human CD47, full length, on transfected …; assay: FACS CHOK1-hCD47; Ab 0.0128 nM
Description: as §1

[15] = biological target: T4, human CD47, full length, on transfected …; assay: FACS CHOK1-hCD47; Ab 1.6 nM
Description: as §1

[16] = biological target: T3, biotin-labeled CD47 extracellular …; assay: blocking ELISA, biotin-CD47-ECD on coated SIRPα-hFc; Ab 1.6 nM
[17] = biological target: T1, His-tagged CD47 recombinant protein, …; assay: ELISA on coated CD47-His; Ab 0.107 nM
[18] = biological target: T4, human CD47, full length, on transfected …; assay: FACS CHOK1-hCD47; Ab 40 nM
Description: as §1

[19] = biological target: T4, human CD47, full length, on transfected …; assay: FACS CHOK1-hCD47; Ab 8 nM
Description: as §1

[20] = biological target: T1, His-tagged CD47 recombinant protein, …; assay: ELISA on coated CD47-His; Ab 0.004 nM
[21] = biological target: T4, human CD47, full length, on transfected …; assay: FACS CHOK1-hCD47; Ab 0.064 nM
[22] = biological target: T3, biotin-labeled CD47 extracellular …; assay: blocking ELISA, biotin-CD47-ECD on coated SIRPα-hFc; Ab 0.0128 nM
Description: as §3

[23] = biological target: T1, His-tagged CD47 recombinant protein, …; assay: ELISA on coated CD47-His; Ab 2.667 nM
Description: as §2

[24] = biological target: T3, biotin-labeled CD47 extracellular …; assay: blocking ELISA, biotin-CD47-ECD on coated SIRPα-hFc; Ab 0.064 nM
Description: as §3

[25] = biological target: T4, human CD47, full length, on transfected …; assay: FACS CHOK1-hCD47; Ab 200 nM
Description: as §1

[26] = biological target: T1, His-tagged CD47 recombinant protein, …; assay: ELISA on coated CD47-His; Ab 13.333 nM
[27] = biological target: T3, biotin-labeled CD47 extracellular …; assay: blocking ELISA, biotin-CD47-ECD on coated SIRPα-hFc; Ab 0 nM
[28] = biological target: T2, cynomolgus CD47, on CHOK1-cCD47 stable …; assay: FACS CHOK1-cCD47; Ab 0.0128 nM
Description: as §1

[29] = biological target: T3, biotin-labeled CD47 extracellular …; assay: blocking ELISA, biotin-CD47-ECD on coated SIRPα-hFc; Ab 8 nM
Description: as §3

[30] = biological target: T4, human CD47, full length, on transfected …; assay: FACS CHOK1-hCD47; Ab 0 nM (background)
[31] = biological target: T1, His-tagged CD47 recombinant protein, …; assay: ELISA on coated CD47-His; Ab 66.667 nM
Description: as §2

[32] = biological target: T3, biotin-labeled CD47 extracellular …; assay: blocking ELISA, biotin-CD47-ECD on coated SIRPα-hFc; Ab 40 nM
Description: as §3

Binder | OD450 nm [1] | mean fluorescence intensity [2] | OD450 nm [3] | OD450 nm of CD47 bound to SIRPα [4] | mean fluorescence intensity [5] | mean fluorescence intensity [6] | mean fluorescence intensity [7] | mean fluorescence intensity [8] | mean fluorescence intensity [9] | OD450 nm [10] | mean fluorescence intensity [11] | mean fluorescence intensity [12] | OD450 nm of CD47 bound to SIRPα [13] | mean fluorescence intensity [14] | mean fluorescence intensity [15] | OD450 nm of CD47 bound to SIRPα [16] | OD450 nm [17] | mean fluorescence intensity [18] | mean fluorescence intensity [19] | OD450 nm [20] | other results
B1 | 0.46 | 83.5 | 0.05 | 1.06 | 7040 | 13200 | 1450 | 1560 | 7400 | 2.91 | 4550 | 9760 | 0.06 | 120 | 4430 | 0.18 | 1.68 | 9790 | 7020 | 0.14 | mean fluorescence intensity [21]: 386; OD450 nm of CD47 bound to SIRPα [22]: 2.79; OD450 nm [23]: 3.02; OD450 nm of CD47 bound to SIRPα [24]: 2.5; mean fluorescence intensity [25]: 9420; OD450 nm [26]: 2.96; OD450 nm of CD47 bound to SIRPα [27]: 2.91; mean fluorescence intensity [28]: 422; OD450 nm of CD47 bound to SIRPα [29]: 0.07; mean fluorescence intensity [30]: 22.9; OD450 nm [31]: 2.89; OD450 nm of CD47 bound to SIRPα [32]: 0.06
B2 | 1.15 | 81.2 | 0.05 | 0.68 | 16500 | 16400 | 998 | 2980 | 9450 | 3.02 | 3310 | 13400 | 0.07 | 233 | 6160 | 0.16 | 2.61 | 9520 | 8470 | 0.31 | mean fluorescence intensity [21]: 759; OD450 nm of CD47 bound to SIRPα [22]: 2.81; OD450 nm [23]: 3.01; OD450 nm of CD47 bound to SIRPα [24]: 2.29; mean fluorescence intensity [25]: 6550; OD450 nm [26]: 2.94; OD450 nm of CD47 bound to SIRPα [27]: 2.9; mean fluorescence intensity [28]: 343; OD450 nm of CD47 bound to SIRPα [29]: 0.08; mean fluorescence intensity [30]: 23.1; OD450 nm [31]: 2.9; OD450 nm of CD47 bound to SIRPα [32]: 0.07
